Our source for the protease stability score values is the NTF2 design screens of Basanta et al. (2020).

A short description of the series: protease stability score; higher = more stable; yeast display proteolysis, trypsin and chymotrypsin.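 Also: log10 excess protease needed over predicted unfolded state with 0 meaning unfolded.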

As to “DEEDMQRFFKEFLKAQETGDPDEIRRQMDPNARAHVGDKEYHGREQVAKMFRDVRERVDRIRIESVDIQGNKANVDVTYNVNGRKARINVTLKAHNGRFKEMHFNPEDTKEMEK”, the protease stability score was 0.033.

On to “DEEDNETALRTMMELIVEGNTNQAHRLFDENATVKIGDTTFHGREQIAQAIRHLHEQADHMEVKDFRLTGDKARANVQLHHNGKTIEVDVVFRVSNGRVKHMFIDPQQVRHLRG”, for which the protease stability score is 1.05.

With “DEEDNKTAKKLAKTGDPDEFAEQADEDVHIVVGDFEVHGRDELRKLMKRLKDHIDHKEIKRLRVHNGHVDLKFKAVFNGQEMEVSVILTARNGKIKRLEFRVRDDHAHELLEHLLK”, the protease stability score was found to be 1.03.

Turning to “DEEDNTKLKRIMQTGDFETLVHQADENAEFHYGDKTYHGNDQAHKAVENQKKQFDKIEVRSIETKNGHVHVEFRIEVNGRELVLTAFANVHNGRVKNATVQARSEEDRKSLKELDR”, the protease stability score came to 0.044.

The sequence “DEEDNTRLVNLFEHNDWDTIADQADPEAQLVIGDKTYTGREEVKKALSTLVERVDRIEFKRFDVHGNKIHVKMELRFDGRNIELVMRITIKNGRIKSIKIRARDKEVEKILKEMHS” displayed a protease stability score of 1.22.

As to “DEEDQAKELAERYLEAMENGDEEKNARLADKDVSLTVGDKHVHGREELKKWFRTFVHRVDHVEIQVHDVKVSNGNATIDAEIKYTFNGRDVKKQVLMHAHVKNGELTLKRMTFE”, the protease stability score worked out at 1.02.

As to “DEEDQEKFARDFVRILKDGNPDRARKMFDENARVHVGEKVVHGRDQIRTLVEEIHRRADRINITDFRVHGNSFVFIVVLEKNGETRSFTIVVIVHNGRAQSMHVQSN”, the protease stability score stood at 0.96.

Turning to “DEEDQERLEDFLRALKKGDEERLKELVDPNAQFEIGDTTYHGREHFLHTMRRKNEEIRVERDFHTVRAENGHVEMHFHAQENHNGRPRTFTAHATAVIHNGRLKSFVLKVDG”, the protease stability score was -0.026.

“DEEDQHVAKEFFSAMLTNDTDKLRRLADPNVRAHIGDKVIHGKEQFVRHVHELVEHQRVQVDRMDLDVDGERVRVEMRHVNEENGQPNDRKAKNSMDIHNGEIKYVTIKTQS” came in with a protease stability score of -0.437.

“DEEDQKELADEMVKVLETGDEDRFSQLLDKDVNINVGDQTYSGSEQAVKWFRELLDNVDSFKFDRVRVNGDQLQIHAILDVNGHDIHVVFQVQFHNGRAQHLNMRYTDDEEKKRFDS” came in with a protease stability score of 1.34.

In turn, “DEEDQKHAESFFRNLINNNPEKLKEMADPNAEFEVGDKTLNGTEDLSKWAQKLKDQARMSIQSLTIRVENGRLSATMTFEVEHNGQPDRMKITAHASITNGKITHFMLRLDPKQYKSWVG” showed a protease stability score of 0.493.

Turning to “DEEDQKNFAEQANRALHHGDPRQMATLADKDAEVTVGDREYKGRRDINEAMKDWSDQVDSIEVKSVTVQGNNIVVHFVFVHNGHEHKVVMRITMEGDKATSIHLDEK”, the protease stability score is 0.336.

“DEEDQKRKANNVAENLINGNEDEARKYIDKDARVHVGDKTYRGREEARKVWHELRKKVDHLRVEHIDVQGDKVDVQAFFRHNGNQTNIQVHIRMENGHVKSISVDNR” yielded a protease stability score of -0.216.

“DEEDQKRVLQEIVRMIQSGDPSQAKRLADPNATAEVGDKTYHGREKLSKYAKDLHDRVDRVHIQHYTVEGNKARIRVEVSVNGRTRQFEVKVQYHNGHITRLKVDTS” displayed a protease stability score of 0.05.

“DEEDQKTVEEFLHNLEKNNEDQIKRLLDKDVKFIIGDKELHGMEDAVDRLRRHIEEMKVRIESVSNTVSGDKVVVDFTFIEDQNGKPDRKRMKIEFRFHNGKAKEIRIETRQ” returned a protease stability score of 1.38.

In turn, “DEEDQKVFERILEIFKTGDEEEAQKNMDKDVRVQYGDKQLHGRENIARELQTKMNELRYKFSIESVENHNGQVRVNFQFVENHNGRPSRKKAKLVVHFRNGKLRNFEQQDVS” gave a protease stability score of 0.534.

The sequence “DEEDQLKEIVERVHDVYKHGDEDKVRKMVDPNARARIGDKRIHGHDNFAKMIAEWKRKADSVSVHVEEFRVSGNKMTMTIRIKMDHNGRDTTFRYTAVATNTNGRVRVVRIQEK” came in with a protease stability score of 0.049.

On to “DEEDQRRVAHDAADALRTGDPDRMVQLADPNVTLDIGDKRFTGDEEFHKAMKEISRQVDHMKIDSYTVRNGRASISAVLEVNGKRKRVFFVFVIHNGRIKELHIKTE”, for which the protease stability score was 1.59.

“DEEDQRTIAKEVVKVMETGDEDRMRELVDEDVKVQYGDKTVHGREQAQRAMKDLRRRADHITMDSVTVHNGEITIKAQLKYNGQNQRVVVQVRVHNGKIKEFRFREQ” had a protease stability score of 1.34.
